# Results reported in IntAct's records for PubMed 31515488.
# B1: Tetratricopeptide repeat protein 5 (Homo sapiens), Q8N0Z6 (parent)
# chain: MMADEEEEVKPILQKLQELVDQLYSFRDCYFETHSVEDAGRKQQDVQKEMEKTLQQMEEVVGSVQGKAQVLMLTGKALNVTPDYSPKAEELLSKAVKLEPELVEAWNQLGEVYWKKGDVAAAHTCFSGALTHCRNKVSLQNLSMVLRQLRTDTEDEHSHHVMDSVRQAKLAVQMDVHDGRSWYILGNSYLSLYFSTGQNPKISQQALSAYAQAEKVDRKASSNPDLHLNRATLHKYEESYGEALEGFSRAAALDPAWPEPRQREQQLLEFLDRLTSLLESKGKVKTKKLQSMLGSLRPAHLGPCSDGHYQSASGQKVTLELKPLSTLQPGVNSGAVILGKVVFSLTTEEKVPFTFGLVDSDGPCYAVMVYNIVQSWGVLIGDSVAIPEPNLRLHRIQHKGKDYSFSSVRVETPLLLVVNGKPQGSSSQAVATVASRPQCE
# B2: Centrosomal protein of 55 kDa (Homo sapiens), Q53EZ4 (parent)
# chain: MSSRSTKDLIKSKWGSKPSNSKSETTLEKLKGEIAHLKTSVDEITSGKGKLTDKERHRLLEKIRVLEAEKEKNAYQLTEKDKEIQRLRDQLKARYSTTTLLEQLEETTREGERREQVLKALSEEKDVLKQQLSAATSRIAELESKTNTLRLSQTVAPNCFNSSINNIHEMEIQLKDALEKNQQWLVYDQQREVYVKGLLAKIFELEKKTETAAHSLPQQTKKPESEGYLQEEKQKCYNDLLASAKKDLEVERQTITQLSFELSEFRRKYEETQKEVHNLNQLLYSQRRADVQHLEDDRHKTEKIQKLREENDIARGKLEEEKKRSEELLSQVQFLYTSLLKQQEEQTRVALLEQQMQACTLDFENEKLDRQHVQHQLHVILKELRKARNQITQLESLKQLHEFAITEPLVTFQGETENREKVAASPKSPTAALNESLVECPKCNIQYPATEHRDLLVHVEYCSK
# partner: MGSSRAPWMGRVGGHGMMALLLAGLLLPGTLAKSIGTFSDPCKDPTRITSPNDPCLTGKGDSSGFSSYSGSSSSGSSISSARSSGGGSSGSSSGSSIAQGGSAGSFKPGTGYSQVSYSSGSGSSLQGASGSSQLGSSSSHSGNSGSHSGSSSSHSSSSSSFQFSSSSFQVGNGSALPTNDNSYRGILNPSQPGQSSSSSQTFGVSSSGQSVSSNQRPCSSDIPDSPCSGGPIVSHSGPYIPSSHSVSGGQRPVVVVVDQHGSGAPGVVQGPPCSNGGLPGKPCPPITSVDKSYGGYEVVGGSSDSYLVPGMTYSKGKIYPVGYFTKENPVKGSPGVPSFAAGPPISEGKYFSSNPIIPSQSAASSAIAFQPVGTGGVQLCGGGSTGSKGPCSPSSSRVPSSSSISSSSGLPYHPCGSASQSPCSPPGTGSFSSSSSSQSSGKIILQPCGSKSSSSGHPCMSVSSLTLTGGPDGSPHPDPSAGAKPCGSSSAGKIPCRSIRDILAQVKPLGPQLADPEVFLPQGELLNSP
# B3: Rho guanine nucleotide exchange factor 39 (Homo sapiens), Q8N4T4 (parent)
# chain: MELSCPGSRCPVQEQRARWERKRACTARELLETERRYQEQLGLVATYFLGILKAKGTLRPPERQALFGSWELIYGASQELLPYLEGGCWGQGLEGFCRHLELYNQFAANSERSQTTLQEQLKKNKGFRRFVRLQEGRPEFGGLQLQDLLPLPLQRLQQYENLVVALAENTGPNSPDHQQLTRAARLISETAQRVHTIGQKQKNDQHLRRVQALLSGRQAKGLTSGRWFLRQGWLLVVPPHGEPRPRMFFLFTDVLLMAKPRPPLHLLRSGTFACKALYPMAQCHLSRVFGHSGGPCGGLLSLSFPHEKLLLMSTDQEELSRWYHSLTWAISSQKN
# partner: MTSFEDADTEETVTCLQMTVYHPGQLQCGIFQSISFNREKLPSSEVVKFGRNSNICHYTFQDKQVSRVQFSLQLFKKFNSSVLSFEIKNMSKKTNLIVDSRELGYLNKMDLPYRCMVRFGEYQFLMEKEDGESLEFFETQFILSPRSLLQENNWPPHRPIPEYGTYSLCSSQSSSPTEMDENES
# B4: Tuftelin-interacting protein 11 (Homo sapiens), Q9UBB9 (parent)
# chain: MSLSHLYRDGEGRIDDDDDERENFEITDWDLQNEFNPNRQRHWQTKEEATYGVWAERDSDDERPSFGGKRARDYSAPVNFISAGLKKGAAEEAELEDSDDEEKPVKQDDFPKDFGPRKLKTGGNFKPSQKGFAGGTKSFMDFGSWERHTKGIGQKLLQKMGYVPGRGLGKNAQGIINPIEAKQRKGKGAVGAYGSERTTQSMQDFPVVDSEEEAEEEFQKELSQWRKDPSGSKKKPKYSYKTVEELKAKGRISKKLTAPQKELSQVKVIDMTGREQKVYYSYSQISHKHNVPDDGLPLQSQQLPQSGKEAKAPGFALPELEHNLQLLIDLTEQEIIQNDRQLQYERDMVVNLFHELEKMTEVLDHEERVISNLSKVLEMVEECERRMQPDCSNPLTLDECARIFETLQDKYYEEYRMSDRVDLAVAIVYPLMKEYFKEWDPLKDCTYGTEIISKWKSLLENDQLLSHGGQDLSADAFHRLIWEVWMPFVRNIVTQWQPRNCDPMVDFLDSWVHIIPVWILDNILDQLIFPKLQKEVENWNPLTDTVPIHSWIHPWLPLMQARLEPLYSPIRSKLSSALQKWHPSDSSAKLILQPWKDVFTPGSWEAFMVKNIVPKLGMCLGELVINPHQQHMDAFYWVIDWEGMISVSSLVGLLEKHFFPKWLQVLCSWLSNSPNYEEITKWYLGWKSMFSDQVLAHPSVKDKFNEALDIMNRAVSSNVGAYMQPGARENIAYLTHTERRKDFQYEAMQERREAENMAQRGIGVAASSVPMNFKDLIETKAEEHNIVFMPVIGKRHEGKQLYTFGRIVIYIDRGVVFVQGEKTWVPTSLQSLIDMAK
# partner: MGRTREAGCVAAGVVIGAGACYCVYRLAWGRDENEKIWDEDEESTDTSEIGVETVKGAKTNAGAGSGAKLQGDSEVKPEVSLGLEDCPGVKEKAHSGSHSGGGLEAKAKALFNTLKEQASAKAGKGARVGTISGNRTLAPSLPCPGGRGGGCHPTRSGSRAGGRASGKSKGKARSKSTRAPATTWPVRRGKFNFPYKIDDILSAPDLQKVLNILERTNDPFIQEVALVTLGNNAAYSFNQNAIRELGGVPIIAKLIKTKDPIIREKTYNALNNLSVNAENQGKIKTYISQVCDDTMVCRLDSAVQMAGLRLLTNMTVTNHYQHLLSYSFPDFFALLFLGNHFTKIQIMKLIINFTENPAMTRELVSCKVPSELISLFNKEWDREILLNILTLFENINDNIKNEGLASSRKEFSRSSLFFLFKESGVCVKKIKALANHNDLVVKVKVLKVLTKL
# B5: Scaffold protein ILK (Homo sapiens), Q13418 (parent)
# chain: MDDIFTQCREGNAVAVRLWLDNTENDLNQGDDHGFSPLHWACREGRSAVVEMLIMRGARINVMNRGDDTPLHLAASHGHRDIVQKLLQYKADINAVNEHGNVPLHYACFWGQDQVAEDLVANGALVSICNKYGEMPVDKAKAPLRELLRERAEKMGQNLNRIPYKDTFWKGTTRTRPRNGTLNKHSGIDFKQLNFLTKLNENHSGELWKGRWQGNDIVVKVLKVRDWSTRKSRDFNEECPRLRIFSHPNVLPVLGACQSPPAPHPTLITHWMPYGSLYNVLHEGTNFVVDQSQAVKFALDMARGMAFLHTLEPLIPRHALNSRSVMIDEDMTARISMADVKFSFQCPGRMYAPAWVAPEALQKKPEDTNRRSADMWSFAVLLWELVTREVPFADLSNMEIGMKVALEGLRPTIPPGISPHVCKLMKICMNEDPAKRPKFDMIVPILEKMQDK
# partner: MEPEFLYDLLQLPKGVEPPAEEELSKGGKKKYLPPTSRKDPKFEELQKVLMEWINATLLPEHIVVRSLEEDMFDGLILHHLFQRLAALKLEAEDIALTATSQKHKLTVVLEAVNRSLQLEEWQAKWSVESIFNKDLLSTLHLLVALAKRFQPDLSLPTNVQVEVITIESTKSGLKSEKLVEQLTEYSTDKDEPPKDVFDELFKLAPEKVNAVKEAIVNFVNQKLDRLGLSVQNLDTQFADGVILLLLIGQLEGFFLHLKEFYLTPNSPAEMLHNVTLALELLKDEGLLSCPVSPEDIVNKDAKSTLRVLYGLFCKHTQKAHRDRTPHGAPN
# B6: Nuclear protein AMMECR1 (Homo sapiens), Q9Y4X0 (parent)
# chain: MAAGCCGVKKQKLSSSPPSGSGGGGGASSSSHCSGESQCRAGELGLGGAGTRLNGLGGLTGGGSGSGCTLSPPQGCGGGGGGIALSPPPSCGVGTLLSTPAAATSSSPSSSSAASSSSPGSRKMVVSAEMCCFCFDVLYCHLYGYQQPRTPRFTNEPYPLFVTWKIGRDKRLRGCIGTFSAMNLHSGLREYTLTSALKDSRFPPMTRDELPRLFCSVSLLTNFEDVCDYLDWEVGVHGIRIEFINEKGSKRTATYLPEVAKEQGWDHIQTIDSLLRKGGYKAPITNEFRKTIKLTRYRSEKMTLSYAEYLAHRQHHHFQNGIGHPLPPYNHYS
# B7: N-chimaerin (Homo sapiens), P15882 (parent)
# chain: MALTLFDTDEYRPPVWKSYLYQLQQEAPHPRRITCTCEVENRPKYYGREFHGMISREAADQLLIVAEGSYLIRESQRQPGTYTLALRFGSQTRNFRLYYDGKHFVGEKRFESIHDLVTDGLITLYIETKAAEYIAKMTINPIYEHVGYTTLNREPAYKKHMPVLKETHDERDSTGQDGVSEKRLTSLVRRATLKENEQIPKYEKIHNFKVHTFRGPHWCEYCANFMWGLIAQGVKCADCGLNVHKQCSKMVPNDCKPDLKHVKKVYSCDLTTLVKAHTTKRPMVVDMCIREIESRGLNSEGLYRVSGFSDLIEDVKMAFDRDGEKADISVNMYEDINIITGALKLYFRDLPIPLITYDAYPKFIESAKIMDPDEQLETLHEALKLLPPAHCETLRYLMAHLKRVTLHEKENLMNAENLGIVFGPTLMRSPELDAMAALNDIRYQRLVVELLIKNEDILF
# Variants of: B1
# Conditions: with kcc2d_human CAMK2D
row,Variant,effect of a mutation on the interaction
1,G424V,with no effect

# Variants of: B2
# Conditions: with cdsn_human CDSN
row,Variant,effect of a mutation on the interaction
1,H57Q,with no effect
2,R348K,with no effect
3,C236R,with no effect
4,A244P,with no effect

# Variants of: B3
# Conditions: with tifa_human TIFA
row,Variant,effect of a mutation on the interaction
1,D204N,with no effect
2,R230C,with no effect

# Variants of: B4
# Conditions: with armx1_human ARMCX1, Q9P291
row,Variant,effect of a mutation on the interaction
1,R8Q,with no effect
2,S688L,with no effect

# Variants of: B5
# Conditions: with parvg_human PARVG
row,Variant,effect of a mutation on the interaction
1,V340G,with no effect

# Variants of: B6
# Conditions: with rbpms_human RBPMS
row,Variant,effect of a mutation on the interaction
1,R207G,with no effect

# Variants of: B7
# Conditions: with nck2_human NCK2, O43639
# nck2_human NCK2, O43639, sequence (O43639 whole entry): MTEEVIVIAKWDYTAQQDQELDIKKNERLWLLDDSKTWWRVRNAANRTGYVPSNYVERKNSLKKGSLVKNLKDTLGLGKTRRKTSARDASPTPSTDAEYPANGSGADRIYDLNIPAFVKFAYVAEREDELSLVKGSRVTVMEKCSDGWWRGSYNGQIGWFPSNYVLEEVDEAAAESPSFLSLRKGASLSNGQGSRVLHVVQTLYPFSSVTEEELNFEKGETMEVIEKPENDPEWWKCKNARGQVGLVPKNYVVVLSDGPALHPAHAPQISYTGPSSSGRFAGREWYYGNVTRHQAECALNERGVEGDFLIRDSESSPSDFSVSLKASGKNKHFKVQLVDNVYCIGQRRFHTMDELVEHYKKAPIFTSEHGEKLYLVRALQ
row,Variant,effect of a mutation on the interaction
1,D115N,with no effect
